Results published in patent US20080050387A1 (published 2008).

B1: f-hRad9, fragment of hRad9 isolated from yeast (aa 327-391) (other)
chain: LSPGPQPPKSPGPHSEEEDEAEPSTVPGTPPPKKFRSLFFGSILAPVRSPQGPSPVLAEDSEGEG
B2: AR DNA-binding domain (AR DBD) (receptor)
chain: KTCLICGDEASGCHYGALTCGSCKVFFKRAAEGKQKYLCASRNDCTIDKFRRKNCPSCRLRKCYEAG
notes: also called GAL4-AR-DBD
B3: testicular receptor 2 (TR2) (receptor)
chain: MATIEEIAHQIIEQQMGEIVTEQQTGQKIQIVTALDHNTQGKQFILTNHDGSTPSKVILARQDSTPGKVFLTTPDAAGVNQLFFTTPDLSAQHLQLLTDNSPDQGPNKVFDLCVVCGDKASGRHYGAVTCEGCKGFFKRSIRKNLVYSCRGSKDCIINKHHRNRCQYCRLQRCIAFGMKQDSVQCERKPIEVSREKSSNCAASTEKIYIRKDLRSPLTATPTFVTDSESTRSTGLLDSGMFMNIHPSGVKTESAVLMTSDKAESCQGDLSTLANVVTSLANLGKTKDLSQNSNEMSMIESLSNDDTSLCEFQEMQTNGDVSRAFDTLAKALNPGESTACQSSVAGMEGSVHLITGDSSINYTEKEGPLLSDSHVAFRLTMPSPMPEYLNVHYIGESASRLLFLSMHWALSIPSFQALGQENSISLVKAYWNELFTLGLAQCWQVMNVATILATFVNCLHNSLQQDAKVIAALIHFTRRAITDL
notes: hSos fusion (pSos-TR2) in yeast; also called pSos-TR2
B4: human checkpoint protein hRad9, full length (other)
chain: MKCLVTGGNVKVLGKAVHSLSRIGDELYLEPLEDGLSLRTVNSSRSAYACFLFAPLFFQQYQAATPGQDLLRCKILMKSFLSVFRSLAMLEKTVEKCCISLNGRSSRLVVQLHCKFGVRKTHNLSFQDCESLQAVFDPASCPHMLRAPARVLGEAVLPFSPALAEVTLGIGRGRRVILRSYHEEEADSTAKAMVTEMCLGEEDFQQLQAQEGVAITFCLKEFRGLLSFAESANLNLSIHFDAPGRPAIFTIKDSLLDGHFVLATLSDTDSHSQDLGSPERHQPVPQLQAHSTPHPDDFANDDIDSYMIAMETTIGNEGSRVLPSISLSPGPQPPKSPGPHSEEEDEAEPSTVPGTPPPKKFRSLFFGSILAPVRSPQGPSPVLAEDSEGEG
notes: Used as GST-hRad9 on beads, as GAL4 DBD fusion (mammalian two-hybrid), as Flag-hRad9 in 293T cells and as endogenous hRad9 of CWR22R cells; also called FL-hRad9; GST-hRad9

Key:
vitamin D receptor (VDR) = target: T1, vitamin D receptor (VDR) (UniProt P11473 1-427); experiment: mammalian two-hybrid in PC-3 cells, pM-f-hRad9 + VP16-VDR
T1 construct: also called VP16-VDR; VP 16-VDR
T1 sequence: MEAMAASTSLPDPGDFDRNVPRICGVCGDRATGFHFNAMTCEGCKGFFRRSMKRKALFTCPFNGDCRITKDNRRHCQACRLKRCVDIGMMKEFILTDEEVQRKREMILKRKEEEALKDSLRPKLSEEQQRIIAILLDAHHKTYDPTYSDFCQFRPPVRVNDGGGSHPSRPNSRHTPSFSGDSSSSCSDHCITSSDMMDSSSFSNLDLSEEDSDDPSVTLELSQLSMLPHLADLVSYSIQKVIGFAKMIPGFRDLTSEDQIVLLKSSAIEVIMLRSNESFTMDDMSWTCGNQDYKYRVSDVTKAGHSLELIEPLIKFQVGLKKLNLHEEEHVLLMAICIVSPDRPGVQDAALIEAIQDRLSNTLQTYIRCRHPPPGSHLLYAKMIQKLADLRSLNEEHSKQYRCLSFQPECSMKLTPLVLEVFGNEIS

[1] = target: T2, estrogen receptor α (ERα) (UniProt P03372 1-595); experiment: mammalian two-hybrid in PC-3 cells, pM-f-hRad9 + VP16-ERα, in the presence of estrogen
T2 construct: also called VP16-ERα; ERcc
T2 sequence: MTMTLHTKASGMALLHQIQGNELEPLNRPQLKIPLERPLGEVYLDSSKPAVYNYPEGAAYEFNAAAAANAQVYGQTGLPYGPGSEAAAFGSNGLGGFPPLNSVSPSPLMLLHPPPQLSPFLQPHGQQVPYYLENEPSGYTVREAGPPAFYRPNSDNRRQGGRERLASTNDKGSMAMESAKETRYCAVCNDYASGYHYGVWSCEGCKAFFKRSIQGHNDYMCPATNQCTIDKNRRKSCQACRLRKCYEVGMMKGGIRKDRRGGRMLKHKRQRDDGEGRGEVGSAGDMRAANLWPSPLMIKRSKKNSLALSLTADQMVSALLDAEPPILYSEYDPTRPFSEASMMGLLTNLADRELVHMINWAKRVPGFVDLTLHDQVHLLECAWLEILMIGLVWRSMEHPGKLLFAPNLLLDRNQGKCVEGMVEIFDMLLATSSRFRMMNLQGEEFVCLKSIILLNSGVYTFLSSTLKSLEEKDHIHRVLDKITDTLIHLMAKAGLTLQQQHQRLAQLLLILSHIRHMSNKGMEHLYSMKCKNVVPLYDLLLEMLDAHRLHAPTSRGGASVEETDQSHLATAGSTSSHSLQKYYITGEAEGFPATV

AR DBD-LBD = target: T3, AR DBD-LBD (human, UniProt P10275 557-920); experiment: cell-based or functional assay
T3 sequence: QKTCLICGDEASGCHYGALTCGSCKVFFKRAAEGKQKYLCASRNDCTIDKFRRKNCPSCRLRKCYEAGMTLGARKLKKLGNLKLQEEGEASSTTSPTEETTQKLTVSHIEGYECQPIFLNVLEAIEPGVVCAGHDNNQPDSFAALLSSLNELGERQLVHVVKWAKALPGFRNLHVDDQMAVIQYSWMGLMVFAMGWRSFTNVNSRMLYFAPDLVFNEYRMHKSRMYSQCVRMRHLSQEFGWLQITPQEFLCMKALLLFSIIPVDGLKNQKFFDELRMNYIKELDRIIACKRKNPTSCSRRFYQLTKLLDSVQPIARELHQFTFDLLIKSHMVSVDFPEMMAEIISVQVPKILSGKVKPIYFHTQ

[2] = target: B2; experiment: yeast two-hybrid (AH109), GAL4-AR-DBD + f-hRad9 fused to an activation domain, 10 nM DHT
[3] = target: B4; experiment: GST pull-down: GST-hRad9 with 35S-labeled AR domains
[4] = target: T4, ARA67 clone of the CytoTrap screen, amino acids 20-585 of PAT1 (pMyr-ARA67) (Homo sapiens, UniProt Q92624 20-585); experiment: CytoTrap Sos yeast two-hybrid, growth of cdc25H on SD/Gal(-LU) at 37° C
T4 construct: The clone matched the DNA encoding aa 20-585 of PAT1 at 99.6% identity; also called pMyr-ARA67/PAT1
T4 sequence: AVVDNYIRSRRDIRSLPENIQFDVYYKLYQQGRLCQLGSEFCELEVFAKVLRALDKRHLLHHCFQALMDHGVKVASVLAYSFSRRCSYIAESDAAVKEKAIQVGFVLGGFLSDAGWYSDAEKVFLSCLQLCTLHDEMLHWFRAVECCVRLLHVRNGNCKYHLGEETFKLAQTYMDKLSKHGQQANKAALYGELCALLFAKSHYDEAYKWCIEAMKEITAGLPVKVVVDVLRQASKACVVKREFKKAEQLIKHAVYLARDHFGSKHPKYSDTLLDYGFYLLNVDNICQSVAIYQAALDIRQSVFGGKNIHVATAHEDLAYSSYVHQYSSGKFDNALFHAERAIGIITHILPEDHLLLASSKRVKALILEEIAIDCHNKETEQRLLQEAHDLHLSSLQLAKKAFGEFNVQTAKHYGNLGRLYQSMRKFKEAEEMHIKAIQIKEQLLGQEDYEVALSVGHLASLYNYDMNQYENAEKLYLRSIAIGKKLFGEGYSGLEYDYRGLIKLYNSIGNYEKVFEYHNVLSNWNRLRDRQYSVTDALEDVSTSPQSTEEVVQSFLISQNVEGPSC
Procedure: The bait and library constructs were co-transformed into yeast strain cdc25H. […] Only the clones that grow out on SD/Gal (−LU) plates but not on SD/Glu (−LU) plates at 37° C. are interaction positive ones.

[5] = target: T5, VP16-AR containing the residues 37 to 919 (human, UniProt P10275 37-920); experiment: mammalian two-hybrid in PC-3 cells, GAL4 DBD-FL-hRad9 + VP16-AR; inhibited by hydroxyflutamide
T5 construct: also called pCMX-VP16-AR; full length AR fused to VP16
T5 sequence: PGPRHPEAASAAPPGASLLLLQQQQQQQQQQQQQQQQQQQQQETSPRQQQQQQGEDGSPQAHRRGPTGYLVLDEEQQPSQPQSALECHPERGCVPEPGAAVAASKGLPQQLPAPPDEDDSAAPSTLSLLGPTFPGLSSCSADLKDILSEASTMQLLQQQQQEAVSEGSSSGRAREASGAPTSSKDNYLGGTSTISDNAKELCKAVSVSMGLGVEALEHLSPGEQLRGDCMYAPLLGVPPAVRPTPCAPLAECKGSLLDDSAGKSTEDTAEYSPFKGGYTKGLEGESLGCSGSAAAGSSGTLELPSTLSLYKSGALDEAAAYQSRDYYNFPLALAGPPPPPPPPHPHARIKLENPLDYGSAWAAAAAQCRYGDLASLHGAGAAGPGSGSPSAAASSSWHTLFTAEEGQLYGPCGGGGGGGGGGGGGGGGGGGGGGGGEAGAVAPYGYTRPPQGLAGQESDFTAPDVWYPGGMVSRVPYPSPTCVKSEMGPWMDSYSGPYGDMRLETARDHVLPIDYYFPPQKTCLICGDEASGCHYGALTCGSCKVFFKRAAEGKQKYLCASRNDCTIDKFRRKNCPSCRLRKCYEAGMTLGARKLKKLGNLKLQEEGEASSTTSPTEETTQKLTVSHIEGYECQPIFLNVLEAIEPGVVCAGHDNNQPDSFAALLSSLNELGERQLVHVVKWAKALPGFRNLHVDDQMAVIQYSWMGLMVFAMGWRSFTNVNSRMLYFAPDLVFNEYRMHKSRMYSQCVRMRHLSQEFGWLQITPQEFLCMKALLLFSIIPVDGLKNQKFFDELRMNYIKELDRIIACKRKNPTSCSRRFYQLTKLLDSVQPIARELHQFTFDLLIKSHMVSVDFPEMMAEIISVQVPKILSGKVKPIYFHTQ

[6] = target: T6, AR N-terminus, full length ARN (ARN1-556) (human, UniProt P10275 1-557); experiment: GST pull-down: GST-hRad9 with 35S-labeled AR domains
T6 sequence: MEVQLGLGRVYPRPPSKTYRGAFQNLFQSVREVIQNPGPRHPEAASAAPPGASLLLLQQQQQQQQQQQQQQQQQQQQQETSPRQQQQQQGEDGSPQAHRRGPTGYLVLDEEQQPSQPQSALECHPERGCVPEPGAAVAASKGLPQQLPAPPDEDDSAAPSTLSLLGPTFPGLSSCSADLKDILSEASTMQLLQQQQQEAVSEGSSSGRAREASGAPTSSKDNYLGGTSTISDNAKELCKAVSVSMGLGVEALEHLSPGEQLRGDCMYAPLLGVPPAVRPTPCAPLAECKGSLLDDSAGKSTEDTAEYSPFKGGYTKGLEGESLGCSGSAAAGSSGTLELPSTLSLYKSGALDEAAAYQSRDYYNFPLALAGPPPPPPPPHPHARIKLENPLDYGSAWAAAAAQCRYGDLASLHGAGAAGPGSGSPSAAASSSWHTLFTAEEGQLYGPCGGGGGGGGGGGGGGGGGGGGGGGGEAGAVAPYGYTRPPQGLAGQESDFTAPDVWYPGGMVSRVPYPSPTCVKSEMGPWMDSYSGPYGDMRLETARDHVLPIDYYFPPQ

B1
binding result (vitamin D receptor (VDR)): no binding
binding result [1]: no binding
reporter activity (yeast two-hybrid, liquid β-gal assay, 10 nM DHT) (AR DBD-LBD): 10 fold
binding result [2]: no binding

B2
binding result [3]: no binding

B3
binding result [4]: no binding

B4
binding result [5]: binds
binding result [6]: no binding
